1 substance from patent US5670340 can be followed below.

The target in test [1] is fusion protein encoded by pG97S4DhCT(G)R4 (β-gal97S4D - linker R4 - hCT(G)) (Escherichia coli; human) [β-galactosidase: P00722].
Test [2] has as its target fusion protein encoded by pG97S4DhCT(G)R5 (β-gal97S4D - linker R5 - hCT(G)) (Escherichia coli; human) [β-galactosidase: P00722].
Test [3] concerns the target β-gal97S4DhCNP-22R3-2 fusion protein (Escherichia coli; human) [β-galactosidase: P00722].
Test [4] deals with β-gal97S4DhCNP-22R5-2 fusion protein (Escherichia coli; human) [β-galactosidase: P00722].
For test [5], the target named is β-gal97S4DhCNP-22R5-3 fusion protein (Escherichia coli; human) [β-galactosidase: P00722].

Consider “V8 protease (from UniProt P0C1U8) (enzyme)”, for which the cleavage efficiency (hCT(G) released, HPLC) in test [1] was 97%; in test [2] it was 7%. Besides, the values for the release efficiency of human CNP-22 (HPLC) in test [3], in test [4] and in test [5] were 99%, 95% and 92%, respectively.
